In patent US20240417476A1 one finds Kd, koff and kon data, which are given here for twelve molecules.

B1: aNRP2-401v5 (antibody, V domains shown)
VH: EVQLVESGGGLVQPGGSLRLSCAASGFTFSDYGMHWVRQAPGKGLEWVSTISRDINTVYYADTVKGRFTISRDNAKNSLYLQMNSLRAEDTAVYYCARGGYTDYWGQGTTVTVSS
VL: DIVMTQTPLSLSVTPGQPASISCRSSQSLVHSNGNTYLYWYLQKPGQSPQLLIYKVSNRFSGVPDRFSGSGSGTDFTLKISRVEAEDVGVYYCSQSTHVLTFGGGTKVEIK
B2: aNRP2-401v8 (antibody, V domains shown)
VH: EVQLVESGGGLVQPGGSLRLSCAASGFTFSDYGMHWVRQAPGKGLEWVSTISRDIQTVYYADTVKGRFTISRDNAKNSLYLQMNSLRAEDTAVYYCARGGYTDYWGQGTTVTVSS
VL: DIVMTQTPLSLSVTPGQPASISCRSSQSLVHSNGNTYLYWYLQKPGQSPQLLIYKVSNRFSGVPDRFSGSGSGTDFTLKISRVEAEDVGVYYCAQSTHPLTFGGGTKVEIK
B3: aNRP2-401v6 (antibody, V domains shown)
VH: EVQLVESGGGLVQPGGSLRLSCAASGFTFSDYGMHWVRQAPGKGLEWVSTISRDINTVYYADTVKGRFTISRDNAKNSLYLQMNSLRAEDTAVYYCARGGYTDYWGQGTTVTVSS
VL: DIVMTQTPLSLSVTPGQPASISCRSSQSLVHSNGNTYLYWYLQKPGQSPQLLIYKVSNRFSGVPDRFSGSGSGTDFTLKISRVEAEDVGVYYCAQSTHPLTFGGGTKVEIK
B4: aNRP2-401v7 (antibody, V domains shown)
VH: EVQLVESGGGLVQPGGSLRLSCAASGFTFSDYGMHWVRQAPGKGLEWVSTISRSINTVYYADTVKGRFTISRDNAKNSLYLQMNSLRAEDTAVYYCARGGYTDYWGQGTTVTVSS
VL: DIVMTQTPLSLSVTPGQPASISCRSSQSLVHSNGNTYLYWYLQKPGQSPQLLIYKVSNRFSGVPDRFSGSGSGTDFTLKISRVEAEDVGVYYCAQSTHPLTFGGGTKVEIK
B5: aNRP2-37v2 (antibody, V domains shown)
VH: DVKLVESGEGLVKPGGSLKLSCAASGFTFSDYALSWVRQTPEKRLEWVAYISSGGDYIYYADTVRGRFTISRDNARNTLYLQMSSLQSEDTAIYYCTRGGQDDYWGQGTTLTVSS
VL: DVVMTQTPLSLPVILGDQASISCRSSQSLVHSNGNTYLQWYLQKPGQSPKLLIYKVSNRFSGVPDRFSGSGSGTDFTLKISRVEAEDLGVYFCSQSTHVPFTFGSGTNLEIK
B6: aNRP2-403v2 (antibody, V domains shown)
VH: QVQLQQPGAELVKPGASVKLSCKASGYTFTSYWMHWVKQRPGRGLEWIGRIDPNSGDTKYNEKFKSKATLTVDKPSSTAYMQVSSLTSEDSAVYYCARSYDYALEYWGQGTSVTVSS
VL: DVVMTQTPLSLPVSLGDQASISCRSSQSLVHSNGNTYLHWFLQKPGQSPNLLIYKVSNRFSGVPDRFSGSGSGTDFTLKISRVEAEDLGVYFCSQNTRVPRTFGGGTKLEIK
B7: aNRP2-401v2 (antibody, V domains shown)
VH: EVQLQESGGGLVKPGGSLKLSCAASGFTFSDYGMHWVRQAPEKGLEWVATISRDINTVYYADTVKGRFTISRDNAKNTLFLQVTSLRSEDTAMYYCTRGGYTDYWGQGTTLTVSS
VL: DIVMTQTPLSLPVSLGDQASISCRSSQSLVHSNGNTYLYWYLQRPGQSPKLLIYKVSNRFSGVPDRFSGSGSGTDFTLKISRVEAEDLGVYFCSQSTHVLTFGGGTKLEIK
B8: aNRP2-408v2 (antibody, V domains shown)
VH: EVKLVESGGGLVKPGGSLKLSCAASGFTFSSYAMSWVRQTPEKRLEWVASISRGSITYYPDSVKGRFTISRDNAGNILYLQMSSLRSEDTAMYYCAREYYYAMDYWGQGTSVTVSS
VL: DIQMTQSPSSLSASLGERVSLTCRASQDIGSRLNWLQQEPDGTIKRLIYATSSLDSGVPKRFSGSRSGSDYSLTISSLESEDFVDYYCLQYASSPYTFGGGTKLEIK
B9: aNRP2-409v3 (antibody, V domains shown)
VH: EVQFVETGGGLVQPKGSLKLSCAASGFTFNTNAMNWVRQAPGKGLEWVARIRTKSNNYATYYADSVKDRFTISRDDSQNILYLQMNNLKTEDTAMYYCVTLDSSGYVWFAYWGQGTLVTVSA
VL: DIQMTQSPSSLSASLGERVSLTCRASQDIGSRLNWLQQEPDGTIKRLIYATSSLDSGVPKRFSGSRSGSDYSLTISSLESEDFVDYYCLQYASSPYTFGGGTKLEIK
B10: aNRP2-405v2 (antibody, V domains shown)
VH: EVMLVESGGGLVKPGGSLKLSCAASGFTFRRYAMSWVRQTPEKGLEWVATITSGGSYTYYLDSVKGRITISRDNAKNTLYLQMSSLRSEDTAMYYCARHGIYGGFDYWGQGTTLTVSS
VL: DVLMTQTPLSLPVSLGDQASISCRSSQSIVHSDGNTYLEWYLQKPGQSPNLLIYKVSNRFSGVPDRFSGSGSGTDFTLKISRVEAEDLGIYYCFQGSHVPFTFGSGTKLEIK
B11: aNRP2-407v2 (antibody, V domains shown)
VH: EVQLQQSGPELVKPGASVTISCKASGYSFTGYYMHWVKQSHVKSLEWIGRINPYNGATSYSQNFKDKASLTIDKSSSTAYMELHSLTSEDSAVYYCAREETTAPFTYWGQGTLVTVSA
VL: DIVMSQSPSSLAVSVGEKVTMSCKSSQSLLYSSNQKNYLAWYQQKPGQSPKLLIYWASTRESGVPDRFTGSGSGTDFTLTISSVQAEDLAVYFCQHYYSYPPTFGGGTKLEIK
B12: aNRP2-400v2 (antibody, V domains shown)
VH: EVQLQESGAELARPGASVKLSCKASGYTFRSYGISWVKQRTGQGLEWIGEIYPRSGNTYYDENFKGRATLTADKSSSTAFMELRSLTSEDSAVYFCARSSITAVVAIPYYYAMDYWGQGTSVTVSS
VL: DIQMTQTTSSLSASLGDRVTISCSASQGISNYLNWYQQKPDGSVKLLIYYTSSLHSGVPSRFSGSGSGTDYSLTISNLEPEDIATYYCQQYSKLPHTFGGGTKLELK

The first assay addresses recombinant NRP2 isoform a (human) (UniProt O60462). The experiment in a line: BLI (Octet RED96e). On the technique in general: Biolayer interferometry detects binding as a change in optical thickness at a sensor tip.
With B1, the Kd stood at 0.391 nM, the koff was found to be 0.000293 s⁻¹ and the kon was 748000 M⁻¹ s⁻¹. On to B2, for which the Kd was determined as 0.0989 nM, the koff came to 0.00012 s⁻¹ and the kon was 1.21e+06 M⁻¹ s⁻¹. The corresponding values for B3 are 0.162 nM, 0.000162 s⁻¹ and 999000 M⁻¹ s⁻¹.

Take B4: the Kd was 0.141 nM, the koff stood at 0.000173 s⁻¹ and the kon stood at 1.23e+06 M⁻¹ s⁻¹.

Another assay has the same target. The experiment in a line: BLI, antibody captured by anti-mouse kappa, NRP2a titrated 0.62-450 nM, 1:1 fit.
Regarding B5, the Kd came to 0.767 nM. On the same count and under the same terms, to B6 belongs 1.4 nM. As for B7, the Kd was found to be 0.136 nM.

As to B8, the Kd came to 2.1 nM. As for B9, the Kd came to 2.23 nM. The same measure, in the same setting: to B10 belongs 0.48 nM; to B11, 0.352 nM; to B12, 0.453 nM.

As a reminder, the Kd is the free concentration of one partner at which half of the binding sites on the other are occupied at equilibrium, for simple one-to-one binding. Broadly, the koff is the rate constant with which the complex falls apart. What is called kon is a measure of how fast the partners come together.
